The supplement of paper PMC12636428

Each sequence was assayed on Saccharomyces cerevisiae (assay: transcriptional activation domain activity (GFP:mCherry ratio, weighted mean of sorted bins, harmonized to initial dataset scale) (arbitrary fluorescence ratio units); higher = stronger transcriptional activation). Details: beta-estradiol 1 µM; induction time 4 h.
How it was run: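 Barcoded protein tiles fused to an estradiol-inducible synthetic transcription factor were integrated at the yeast URA3 locus, in diploids carrying a GFP reporter. Cultures were diluted 1:5 into SC with 1 uM beta-estradiol, held 4 hours at 30 °C, sorted into 8 bins by GFP:mCherry ratio, and barcodes sequenced. Tiles under 50 reads were discarded. Activation activity is the read-weighted mean of bin median fluorescence, averaged across barcodes, then linearly mapped onto the initial dataset scale.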

| Sequence | transcriptional activation domain activity |
| --- | --- |
| LARVLTDFPMIFVMCTVFCIILYFMSGFAMEASKFWIFYLFVYVTTFCITALY | 46200 |
| MILKHIHSCHALASFVVSLHSFPLLFSCPSRGLCGIVALETVFLFFFFPLFQL | 75600 |
| LLKYAEWLIKPEQNNGSWVADVLWPVLNLDLQWISSHWNESSWDLWWPPIWGG | 32400 |
| SNAAWGVMITFFQIIGLFDKYPIYWDSRLGDVVKAVSITILNTDYINLQCAYG | 73900 |
| LQKTVNLKNIMKVSDPYVPTRNTFNYDVKISNDFFDNGDNLYGNDEEVLFYED | 61500 |
| QLNLVNHFYQFSLRFFLDIFDYILHHNPNLKGVTDYSRRRAILLNDLFLVVYQ | 55500 |
| EVRELHLIDRTLDELRTVQLTLTMLHLICAPKPVFHLLRSVVLQCAEPKGLLT | 46300 |
| MRDNQYPPYLLSVVHFTCQPPFGVRNLHSPIFILFQYVPHVLLIHFSSFVIFF | 64300 |
| VIIQLQKLFLVSISLKLVQRISSLNQLFKTSVASLPAIGNLFLLWATLFIFFA | 53000 |
| MADTTDPPAPRKRGRPPKNKEGGATAKPVTLGPDGLPRKRGRPRKNPVVEVAT | 20300 |
| YHALKVYRGLGLLLVNGVTGICLSICVIVVACFGHFHFSPYWVLQWAVMSRIV | 63500 |
| LMFLVLIVSNLRLMIENFRKYGVLICIRCHDYRRQDVVYGSILYFLVPCHLFV | 73100 |
| LTNLNEIDFTNMFCNDNFIQNYNQGLMELLTEPTPGPSSSSCILPSTPTRPLS | 83000 |
| LAEGAATEEAKTEEGSAPAGETAALAEAAATEEAAATEEVKEEKKEEAATTKA | 29900 |
| MCNLFSFSVQSISGNGVLYIFSFKVLYTFLPSPLLFLSFFSLLFYFFILSLFS | 38400 |
| LAQDPAGEQKKRRGRPPRYNVKLEPGEGDGAVTAPVKARKRKRESETPLSAPP | 33600 |
| MALNLFQKEIFLILFLLFYYFAILLFCYFIILLFCYLIFLFFLFHLSLSSLIF | 26300 |
| KLWAKRRAIYGNVFGFPGGVAWAMLVARICQLYPNAVSATIVGKFFNILTKWN | 33200 |
| HVNVPTQFLSMVCPMAESIVEMVNGRMNLVGTTNYWRMIILLRPYVFQCGAAI | 44200 |
| FFFFFFFFFFFFFLFLLLSLFFPYLICHRLHLKTQLPHICFIFRLLAASCLST | 46400 |
| MLCLCTIWIYNAQICYYLSSCSTLLVTDCCCCYYYSLLFYILTSSFFQILLST | 50100 |

| Sequence | transcriptional activation domain activity |
| --- | --- |
| FALMLREPAIQDVMSLLITTMSKFMDWFDFLDLIVTYPEFPDPKWLTTLFLIL | 23900 |
| MHYRYIAGFFFVHTFSCGQGLKDSNLILQCVPLYPQLHPFFLIFLHFFVFLSL | 70600 |
| KESPILVGLICIFNASTFLQMMFYAAISLPLNEDACFGVNFVQTLLWHISFCT | 74000 |
| MLLFYILLSFSISSFFVCSLSNMLFFYMHHLIYMLTIFFYLLFNPITPILFFV | 51300 |
| MYIQYNILLTFPFLFLHFLFLFFFFFFFFLLFFFFLSRSPLTPSLAPPSPLLT | 65300 |
| MDILDIFFLFYSLLVSFLFFSLLIPPLFLSSFISISFYFFDGVLCVLLGFFFR | 61500 |
| GAQTSGPSSSAGSNNNSSSSSSEEDEPATGGSNGTQLKGKPRKTAAKRATSSG | 35300 |
| GEGESADERRRRRHKRKRDGSDEEDEEERGRKRSRRSKGSDDDRSGDDDEDDE | 25600 |
| HNLFELVFLDQMCGFCCFSMRFVVMLDLIGTIILPSTVIYLVYIIIAAVLKFQ | 38600 |
| LELQHFLLSFAHFPLLVWVFSWVLVFGFNWFLSIYGVLELFFLFCSHCWIAWS | 63900 |
| RILATQFFYVAAFTFLVFHSAFRAARITLPLYQHPLRIAIPVTLTQMGLHATA | 64600 |
| IFLFHINHAVFKSVVWWIGVFFFVYVLITIMPILRYDSPYYSPLSASVWFLYT | 45800 |
| STIHNLFEVVLLPDLCGFCCFSMRFVVLVDLVGTLTLPVTVVYLIYLIYVIAS | 54400 |
| MGMEYIFCLSLSSWGYIFFSFHGFPLFLIFIFSFLARFFLLFFHLFFSFSFFA | 65400 |
| RQLVLLQKAEVDLFYMTVALILICALCAGLCLNIAIQARGTTLLTNWTQLEFC | 58300 |
| LPKDANLCFGKDFLAMYFYCTAVPTLFMFMVSERLYNALMQLAVFLLLCILHL | 65000 |
| YRSRGIDEGRGKREAGRERERAERRSTKEAEKGGEGRWEGRSARRKEAGGKKG | 56700 |
| MLTLLSVTHGLLHKSLVHLGSIFDLCLLWAQGKYTNPILSCLLSLYLLSWLLY | 62700 |
| PAPTGDSPKKEKKRKRESAVAEDAPAAAEAEEADEPEKKKKKKKKHAEAEGAN | 23700 |
| VARVVNVFLWSMAVTFFLLVMHRITVYRAQQLYITTYCDPYFPIYPLRRILPQ | 45400 |
| ILPRWIQVAITFVALLAVSCIVMVVGLIVKYWTLSVSFGHFLSRFAVLRYIVL | 58500 |

| Sequence | transcriptional activation domain activity |
| --- | --- |
| MAGENGGLGAFRDGSADGVGRGADLVSSLEQTRGYQMEMFQESLRRNIIVAMD | 62800 |
| SGGGRRRDGGGRRAGGRRDGAGGGRGRGDRGGGGGGGGERGERGGRPKKTQEE | 50900 |
| GTDDAEAREKTGAADPSADPASRKRRADDGEGDARKRIRTEGGSASAAAASSS | 14100 |
| MFVNLFFSLLTPICTLCFFCNPLSLPLPFFPSHLFPLFSILPLLFFFFFLCCY | 46200 |
| IEKNMYPVGTLLTLADHGFNGWLKTTLLPYLNLLHNLDVLDPELLTIFTSFIL | 54700 |
| PDEDEVVENAEKPKRRRRAKPTEEEQNEEQQNEEDAVENAGKKKRGKRTKPTE | 39900 |
| SVTSEAIQVCVAARAREGEANRAVRNVIAEALRVPKSNVQVAKGLKSREKTLI | 43300 |
| SLPSTTPAGAPPTDAAKPAGGLFGNTSAQASTGSSGLFGNAAKPATTSASSAQ | 16100 |
| MSAPPEEVASTQSAQPTTEPALIGEPVKRGRGRPKGSKNKAKPSTAATATGEA | 34800 |
| PLFSILFSLSSFLSLPCPAHGCGPVGSWWSCLFLLFFFLSLLVMLSLLWCFGF | 41000 |
| MGSGDTFFYWKLFSFSLSLLTRFSPLYFGWPFLKTIPLFMYFFLCRVLPLFLM | 53400 |
| MVNCLKVFLVVLLAPIPLAPPIFLLSFLALMVVDHEPCPYCSLLIILLLQSTC | 31200 |
| DTCTKVHGRVFSREVHHIRFNRITTSTIVALRVASEVGAIWMLPMIYYTIVCW | 24200 |
| KLKEKNKKRKRGEEVSDDEEEGPKDDEPKEKKAKKEEEHGVWVGNLAFATSQD | 36700 |
| MLLALRMFEELKLFFLSFVFLSQFFFFIYLFLVHYCKWRMVTLPYSVFTFFLV | 44000 |
| MYLWVLLQKVGLLLLLLLLLLLLLLLLLLHWLLHLLLLLLLLLLLLYQVCLQW | 23400 |
| ANHQIYLDWWYTWCLAYFMDTHRDVCIVLKKSLKWVPIFGWAMHQFFNFIFLA | 41800 |
| VPYFHGLQPNNHYIHRLVVIFLQFAPSFIILTISYEGLFYFGFCLCLFCWILL | 40300 |
| MSEEEGPAKSTSNKKRRLQGACDECRKRKVKCDSANMPGNQCSNCNVSHIECT | 42300 |
| TEEDAINQSKESNMISINEMLQKQMDFELLGENHLKETQDYLALYKKAYGIEF | 113000 |
| FGVGMVPLGCQWACHLVALMVLFDVGWLCISRFILLDSMLLFFTFLTVFCMTK | 57900 |

| Sequence | transcriptional activation domain activity |
| --- | --- |
| SEPEEEDSSSKKRKRKADDEGKKKAKKGKKAAGSDDEDEDANSVHISVTQAVS | 36600 |
| LLLFLFLRICFGLHVLATSAWFFYPSFLYGLSLITLPLFYGGVDPSVPWLFDG | 48900 |
| KRGEGEAGKESGRQRRSGSAGERAGRRGEGSKEGAEGESEASREKGNKRNDEE | 32800 |
| IEDQTKYVTQAYLAATRIVTIISKLVETRHLIELPIYIRQSVTYAVLILFRLH | 56400 |
| GGGGGGGGSYGAFGGGGKTCYTCGGVGHLSRDCVQGSKCYNCSGIVRDVILVE | 67800 |
| EVAEEAAAAAAPEKKTRRGASKKAAAEKAAAAEEEGEKAAQKAEKAAEKAAEK | 33200 |
| CRGFGFWVRVLLGICGVCGVVALRTYAIYHVFQLNLPSRGLRFYLPLLFYIAC | 57100 |
| SSQVARLHQSWQHSIRVPFALVANYDHPLPWLLQHYVPLYMPALLFRFHILTF | 50100 |
| MMYDSLSSLFVSTLFFSLYEFLCLSCPLCFNYPFQVGFCTLFLFFHPLFAFMQ | 34500 |
| ETKGASGEGGKSTSESGSASSSSSKGEGKAAGEQGSSGSSSGSSSESGSKEKT | 30100 |
| DDAAADLQEAQAGASKKNRKRNRKKNAQDGPAEEATPSKGARQGKKGKGWRET | 12000 |
| MKHETLFFLFCRSLTRFFPMFGASFFFVLFLDLFVFVFCVVYGYSRFIFFLFV | 50300 |
| MRLLYCFFHPGRIFDWFCWIHHVFLLVFGWLPLDWLYNLWGLGSLPWTLQNMP | 47300 |
| EEDNHSGDDNEDDHDSSGVDDDHGGGGDEDDGDGGEGDGGDVMQLYFIHNIIL | 37400 |
| LLTFLLFSIFFFERLPHLYRSISLLLRPCFRLNIHFIFLILSRVFMYGSYGSF | 55300 |
| LKKHDVNALVTVICNFLICITMALCVVWDSELLPDCLFRVKLIYTLITLGFLC | 63400 |
| SDASAGAEAGTDGSAAPPKKKPRQKRAAPLPGEEGYDAAASKPKRAPRKRKAS | 25300 |
| ATGLAWGVWGKKGAPRFRGSCAERFDTLSSTEWKGSRLVRLVARFDNTVRSVP | 45600 |
| EDEGEKDDDEEVKEVKEEGDNSGEEGKEGNGEEAKTEEDKPSEEQQQQAKEEA | < 6570 |
| MSLPIHRLLSYTCSIIYLLVHHLYFVFSFFIPVYFIQAQFFFAAFPFILFFIC | 66900 |
